Measured values reported in article PMC7612376, “Structural basis of meiotic chromosome synaptic elongation through hierarchical fibrous assembly of SYCE2-TEX12” (Nature structural & molecular biology, 2021).
One block for each molecule: values may come before it.

Legend:
Test in all cases: SEC-MALS; co-purified complexes at >1 mg/ml on Superdex 200 Increase 10/300 GL in 20 mM Tris pH 8.0, 150 mM KCl, 2 mM DTT; in Fig. 1 core at 200 uM and full-length at 100 uM (4 mg/ml)
[1] = target: SYCE2-TEX12 core ΔCtip 2:2 complex (human) (UniProt Q6PIF2)
[2] = target: SYCE2-TEX12 full-length ΔCtip 2:2 complex (human) (UniProt Q6PIF2)
[3] = target: T1, SYCE2 core (amino-acids 57-165) (human, UniProt Q6PIF2 57-165); conditions: both partners purified
T1 construct: SYCE2, human, core, residues 57-165; also called SYCE2 structural core; source: E. coli BL21 (DE3), co-expressed with TEX12, purified (Ni-NTA, amylose, ion exchange, SEC); not shown: MBP, N-terminal, cleaved
T1 sequence (looked up): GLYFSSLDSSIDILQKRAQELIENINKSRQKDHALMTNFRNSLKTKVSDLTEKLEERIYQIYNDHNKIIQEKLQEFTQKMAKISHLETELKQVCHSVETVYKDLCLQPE

[4] = target: the molecule itself
[5] = target: T2, SYCE2 full-length (1-218) (human, UniProt Q6PIF2 1-218); conditions: both partners purified
T2 construct: SYCE2, human, full-length, residues 1-218; source: E. coli BL21 (DE3), co-expressed with TEX12, purified (Ni-NTA, amylose, ion exchange, SEC); not shown: MBP, N-terminal, cleaved
T2 sequence (looked up): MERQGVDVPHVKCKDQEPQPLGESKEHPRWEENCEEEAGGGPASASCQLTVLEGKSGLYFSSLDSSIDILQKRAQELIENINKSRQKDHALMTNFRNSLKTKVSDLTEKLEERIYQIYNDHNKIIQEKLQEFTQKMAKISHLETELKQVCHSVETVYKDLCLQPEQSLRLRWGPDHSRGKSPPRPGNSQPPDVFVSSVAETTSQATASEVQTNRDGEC

B2: SYCE2-TEX12 core wild-type, 2:2 building block (complex, human)
chain 1: GLYFSSLDSSIDILQKRAQELIENINKSRQKDHALMTNFRNSLKTKVSDLTEKLEERIYQIYNDHNKIIQEKLQEFTQKMAKISHLETELKQVCHSVETVYKDLCLQPE
chain 2: KDEALEKDLNDVSKEINLMLSTYAKLLSERAAVDASYIDEIDELFKEANAIENFLIQKREFLRQRFTVIANTLHR
notes: SYCE2, human, core, residues 57-165; TEX12, human, core, residues 49-123; in solution it is found as 4:4 complex and larger assemblies, which are the rows of this molecule with itself; also called core complex; wild-type core; source: E. coli BL21 (DE3), co-expressed, purified (Ni-NTA, amylose, ion exchange, SEC); not shown: MBP, N-terminal, cleaved; His6, N-terminal, cleaved; copies: 2 + 2
percent of total mass as 4:4 complex [4]: 75%
stoichiometry N [4]: 2 2:2 building blocks

B3: SYCE2-TEX12 core wild-type MBP-fusion, 2:2 building block (complex, human)
chain 1: GLYFSSLDSSIDILQKRAQELIENINKSRQKDHALMTNFRNSLKTKVSDLTEKLEERIYQIYNDHNKIIQEKLQEFTQKMAKISHLETELKQVCHSVETVYKDLCLQPE
chain 2: KDEALEKDLNDVSKEINLMLSTYAKLLSERAAVDASYIDEIDELFKEANAIENFLIQKREFLRQRFTVIANTLHR
notes: SYCE2, human, core, residues 57-165; TEX12, human, core, residues 49-123; m6 + m16; found as a 4:4 complex in solution; also called SYCE2-TEX12 core MBP-fusion wild-type; source: E. coli BL21 (DE3), co-expressed, purified; not shown: MBP, N-terminal, kept; copies: 2 + 2
stoichiometry N [4]: 2 2:2 building blocks

B4: SYCE2-TEX12 core H89E/Y115E, 2:2 building block (complex, human)
chain 1: GLYFSSLDSSIDILQKRAQELIENINKSRQKDEALMTNFRNSLKTKVSDLTEKLEERIEQIYNDHNKIIQEKLQEFTQKMAKISHLETELKQVCHSVETVYKDLCLQPE
chain 2: KDEALEKDLNDVSKEINLMLSTYAKLLSERAAVDASYIDEIDELFKEANAIENFLIQKREFLRQRFTVIANTLHR
notes: SYCE2, human, core, residues 57-165, with H89E and Y115E; TEX12, human, core, residues 49-123; m4 + m8; also called H89E Y115E mutation; source: E. coli BL21 (DE3), co-expressed, purified (Ni-NTA, amylose, ion exchange, SEC); not shown: MBP, N-terminal, cleaved; His6, N-terminal, cleaved; copies: 2 + 2
percent of total mass as 2:2 complex (not self-associated) [4]: 60%
percent of total mass as 4:4 complex [4]: 40%
stoichiometry N [4]: 2 2:2 building blocks

Now from value to molecule:

percent of total mass as 2:2 complex (not self-associated) [1]: 98%
percent of total mass as 4:4 complex [1]: 2%
stoichiometry N (2:2 building blocks) [1]: 2
Molecule: SYCE2-TEX12 core ΔCtip 2:2 complex (from UniProt Q6PIF2 57-165; Q9BXU0 49-113)

percent of total mass as 2:2 complex (not self-associated) [2]: 98%
percent of total mass as 4:4 complex [2]: 2%
stoichiometry N (2:2 building blocks) [2]: 2
Molecule: SYCE2-TEX12 full-length ΔCtip 2:2 complex (from UniProt Q6PIF2 1-218; Q9BXU0 1-113)

stoichiometry N [3]: 1 TEX12 per SYCE2 (4:4)
B1: TEX12 core F102A F109A V116A (domain or fragment, human, UniProt Q9BXU0 49-123, looked up)
chain: KDEALEKDLNDVSKEINLMLSTYAKLLSERAAVDASYIDEIDELFKEANAIENALIQKREALRQRFTAIANTLHR
notes: TEX12, human, core, residues 49-123, with F102A, F109A and V116A; also called FFV (core); source: E. coli BL21 (DE3), co-expressed with SYCE2, purified (Ni-NTA, amylose, ion exchange, SEC); not shown: His6, N-terminal, cleaved

stoichiometry N [3]: 1 TEX12 per SYCE2 (2:2)
B5: TEX12 core L110E F114E I117E L121E (domain or fragment, human, UniProt Q9BXU0 49-123, looked up)
chain: KDEALEKDLNDVSKEINLMLSTYAKLLSERAAVDASYIDEIDELFKEANAIENFLIQKREFERQRETVEANTEHR
notes: TEX12, human, core, residues 49-123, with L110E, F114E, I117E and L121E; also called LFIL (core); source: E. coli BL21 (DE3), co-expressed with SYCE2, purified (Ni-NTA, amylose, ion exchange, SEC); not shown: His6, N-terminal, cleaved

stoichiometry N [5]: 1 TEX12 per SYCE2 (2:2)
B6: TEX12 ΔCtip (amino-acids 1-113) (domain or fragment, human, UniProt Q9BXU0 1-113, looked up)
chain: MMANHLVKPDNRNCKRPRELESPVPDSPQLSSLGKSDSSFSEISGLFYKDEALEKDLNDVSKEINLMLSTYAKLLSERAAVDASYIDEIDELFKEANAIENFLIQKREFLRQR
notes: TEX12, human, ΔCtip, residues 1-113; also called TEX12 ΔCtip truncation; source: E. coli BL21 (DE3), co-expressed with SYCE2, purified (Ni-NTA, amylose, ion exchange, SEC); not shown: His6, N-terminal, cleaved
